The values below come from paper PMC6895265.

Data set [1] addresses TCF4 bHLH domain (Homo sapiens) (UniProt P15884). Put plainly: FP. Conditions: 25 C.
Data set [2] has the same target. Put plainly: ITC. The settings on record: ITC: 20 mM Tris pH 7.5, 150 mM NaCl, 25 C.

Chain of TCF4 bHLH domain (Homo sapiens) (P15884 565-624): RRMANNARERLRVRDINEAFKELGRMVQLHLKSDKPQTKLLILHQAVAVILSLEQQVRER

On to “CCGGTCACGTGTCCTA (double strand) [FAM 16-mer central CpG 5caC/C]”, for which the Kd in data set [1] (5caC at strand 1 C8, ITC: 20 mM Tris pH 7.5, 150 mM NaCl) stood at 0.14 µM.

Sequence “ACGCACGTGCGT (double strand) [12-mer CG-flanked, X=C]” displayed a Kd in data set [2] of 0.37 µM.

“CCGGTCACGTGTCCTA (double strand) [FAM 16-mer central CpG M/C]” yielded a Kd in data set [1] (5mC at strand 1 C8, ITC: 20 mM Tris pH 7.5, 150 mM NaCl) of 0.16 µM.

“CCGGTCACGTGTCCTA (double strand) [FAM 16-mer E-box C/C]”: the Kd in data set [1] (ITC: 20 mM Tris pH 7.5, 150 mM NaCl) was 0.11 µM.

Sequence “CCGGTCACGTGTCCTA (double strand) [FAM 16-mer central CpG F/C]” registered a Kd in data set [1] (5fC at strand 1 C8, ITC: 20 mM Tris pH 7.5, 150 mM NaCl) of 0.19 µM. This lies in the sub-micromolar range.

Take “CCGGTCACGTGTCCTA (double strand) [FAM 16-mer central CpG H/C]”: the Kd in data set [1] (5hmC at strand 1 C8, ITC: 20 mM Tris pH 7.5, 150 mM NaCl) was found to be 0.16 µM. That is a sub-micromolar value.

One may read the Kd as the concentration at which binding is half-saturated. Higher therefore signals weaker binding.
